The results in this text go back to article PMC6650080, “A novel Ca2+-binding protein that can rapidly transduce auxin responses during root growth” (PLoS Biology, 2019).

Test [1] concerns the target T1, His6-ICR1 (Arabidopsis, UniProt Q8LE98 1-344).
T1 construct: ICR1, Arabidopsis; also called His-ICR1; source: E. coli Rosetta (DE3), purified (Ni-NTA)
T1 sequence (looked up): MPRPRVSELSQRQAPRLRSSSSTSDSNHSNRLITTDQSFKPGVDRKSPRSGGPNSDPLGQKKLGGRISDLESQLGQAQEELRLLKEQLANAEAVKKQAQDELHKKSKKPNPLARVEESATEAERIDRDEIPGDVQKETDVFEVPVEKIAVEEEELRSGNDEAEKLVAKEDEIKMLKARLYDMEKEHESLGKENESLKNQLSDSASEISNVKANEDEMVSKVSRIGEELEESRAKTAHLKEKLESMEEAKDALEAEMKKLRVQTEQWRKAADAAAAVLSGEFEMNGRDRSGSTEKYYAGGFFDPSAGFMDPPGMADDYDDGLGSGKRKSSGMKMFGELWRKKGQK
Briefly: co-IP; purified His6-CMI1 and His6-ICR1, 1 μg each, 300 μL reaction buffer (20 mM Tris-HCl pH 7.5, 5 mM CaCl2, 0.1 mg/mL BSA, 200 mM NaCl, 1% Triton X-100), RT; anti-CMI1 antibodies and Protein A beads; blot with anti-poly-His. The following applies: both partners purified.

Test [2] has as its target T2, GST-ICR1 (Arabidopsis, UniProt Q8LE98 1-344).
T2 construct: ICR1, Arabidopsis; also called glutathione S-transferase (GST)-ICR1; source: E. coli Rosetta (DE3), purified (Glutathione sepharose)
T2 sequence (looked up): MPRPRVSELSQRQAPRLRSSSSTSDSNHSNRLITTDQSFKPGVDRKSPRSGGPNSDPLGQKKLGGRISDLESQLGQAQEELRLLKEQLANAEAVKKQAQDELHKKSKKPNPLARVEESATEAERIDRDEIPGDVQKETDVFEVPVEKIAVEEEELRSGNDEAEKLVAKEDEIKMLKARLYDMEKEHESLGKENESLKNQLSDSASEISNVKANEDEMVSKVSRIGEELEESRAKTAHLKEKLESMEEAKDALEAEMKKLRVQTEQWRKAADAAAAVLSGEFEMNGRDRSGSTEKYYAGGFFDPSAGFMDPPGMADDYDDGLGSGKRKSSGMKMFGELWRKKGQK
Put plainly: pull-down; GST-ICR1 (1.2 μg) or GST (0.4 μg) on Glutathione sepharose, His6-CMI1 0.5 μg; 20 mM Tris-HCl pH 7.5, 5 mM CaCl2, 0.1 mg/mL BSA, 200 mM NaCl, 1% Triton X-100, RT; wash with 1 M NaCl; blot with anti-poly-His. The following applies: both partners purified.

B1: His6-CMI1 (natural protein, Arabidopsis, UniProt O81831 1-130, looked up)
chain: MASPKSPTRPTQQNPQPNFHDFLPTMAGNLGGEGLIGELCNGFELLMDREKGVITFESLRRNAAAVLGLGDLTDEDVRCMIKEGDFDCDGALNQMEFCVLMFRLSPDLMEASRCLVTEVIEEEFGFTRRH
notes: CMI1, Arabidopsis, At4g27280; also called His-CMI1; source: E. coli Rosetta (DE3), purified (Ni-NTA)
As to B1, the binding result in test [1] and in test [2] was “binds” each time.
